Assay results taken from patent publication US20170283497A1 (CELLECTIS, published 2017).

Biological target: Tyrosine-protein kinase transmembrane receptor ROR1 (human, UniProt Q01973 30-937)
Assay: cell-based or functional assay

Sequence of Tyrosine-protein kinase transmembrane receptor ROR1 (Q01973 30-937): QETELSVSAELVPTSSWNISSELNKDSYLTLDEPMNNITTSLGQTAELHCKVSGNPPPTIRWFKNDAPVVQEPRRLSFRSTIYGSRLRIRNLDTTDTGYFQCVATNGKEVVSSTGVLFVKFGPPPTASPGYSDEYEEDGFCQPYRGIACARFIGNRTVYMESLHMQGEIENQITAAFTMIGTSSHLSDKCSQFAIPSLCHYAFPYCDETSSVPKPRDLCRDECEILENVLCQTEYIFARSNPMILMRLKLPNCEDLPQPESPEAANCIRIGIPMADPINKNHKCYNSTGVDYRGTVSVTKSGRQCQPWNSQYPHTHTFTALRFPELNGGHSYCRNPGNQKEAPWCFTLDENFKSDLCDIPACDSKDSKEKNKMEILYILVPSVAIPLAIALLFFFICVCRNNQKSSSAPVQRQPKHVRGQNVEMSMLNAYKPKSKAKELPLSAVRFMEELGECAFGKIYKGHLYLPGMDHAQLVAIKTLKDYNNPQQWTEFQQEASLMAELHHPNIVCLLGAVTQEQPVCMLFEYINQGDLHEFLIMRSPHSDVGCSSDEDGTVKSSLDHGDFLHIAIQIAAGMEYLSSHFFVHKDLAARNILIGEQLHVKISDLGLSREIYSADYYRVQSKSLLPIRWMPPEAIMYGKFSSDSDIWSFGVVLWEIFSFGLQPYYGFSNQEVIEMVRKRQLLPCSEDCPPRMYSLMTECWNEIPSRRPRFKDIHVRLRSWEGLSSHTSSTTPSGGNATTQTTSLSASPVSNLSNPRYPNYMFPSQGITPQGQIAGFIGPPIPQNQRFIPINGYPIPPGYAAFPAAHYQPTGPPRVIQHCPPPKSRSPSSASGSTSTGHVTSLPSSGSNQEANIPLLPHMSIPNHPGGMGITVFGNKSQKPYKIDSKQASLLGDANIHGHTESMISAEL

| Binder | degranulation of scCAR-modified T cells (primary screening) [%] | degranulation of scCAR-modified T cells (secondary screening) [%] | production of IFNγ by scCAR-modified T cells [pg/mL] | cytotoxic activity of scCAR-modified T cells, specific lysis of PC-3 cells [%] |
| --- | --- | --- | --- | --- |
| D10-v1 scCAR (other) QVQLKESGPGLVAPSQTLSITCTVSGFSLTSYGVHWVRQPPGKGLEWLGVIWAGGFTNYNSALKSRLSISKDNSKSQVLLKMTSLQTDDTAMYYCARRGSSYSMDYWGQGTSVTVSSGGGGSGGGGSGGGGSEIVLSQSPAITAASLGQKVTITCSASSNVSYIHWYQQRSGTSPRPWIYEISKLASGVPVRFSGSGSGTSYSLTISSMEAEDAAIYYCQQWNYPLITFGSGTKLEIQGLAVSTISSFFPPGYQIYIWAPLAGTCGVLLLSLVITLYCKRGRKKLLYIFKQPFMRPVQTTQEEDGCSCRFPEEEEGGCELRVKFSRSADAPAYQQGQNQLYNELNLGRREEYDVLDKRRGRDPEMGGKPRRKNPQEGLYNELQKDKMAEAYSEIGMKGERRRGKGHDGLYQGLSTATKDTYDALHMQALPPR | ≥ 20 |  |  |  |
| D10-v3 scCAR (other) QVQLKESGPGLVAPSQTLSITCTVSGFSLTSYGVHWVRQPPGKGLEWLGVIWAGGFTNYNSALKSRLSISKDNSKSQVLLKMTSLQTDDTAMYYCARRGSSYSMDYWGQGTSVTVSSGGGGSGGGGSGGGGSEIVLSQSPAITAASLGQKVTITCSASSNVSYIHWYQQRSGTSPRPWIYEISKLASGVPVRFSGSGSGTSYSLTISSMEAEDAAIYYCQQWNYPLITFGSGTKLEIQTTTPAPRPPTPAPTIASQPLSLRPEACRPAAGGAVHTRGLDFACDIYIWAPLAGTCGVLLLSLVITLYCKRGRKKLLYIFKQPFMRPVQTTQEEDGCSCRFPEEEEGGCELRVKFSRSADAPAYQQGQNQLYNELNLGRREEYDVLDKRRGRDPEMGGKPRRKNPQEGLYNELQKDKMAEAYSEIGMKGERRRGKGHDGLYQGLSTATKDTYDALHMQALPPR | ≥ 20 | ≥ 20 | ≥ 1500 | > 20 |
| H10-v1 scCAR (other) EVKLVESGGGLVKPGGSLKLSCAASGFTFSSYAMSWVRQTPEKRLEWVASISTGASAYFPDSVKGRFTISRDNARNILYLQMSSLRSEDTAMYYCARITTSTWYFDVWGAGTTVTVSSGGGGSGGGGSGGGGSDIKMTQSPSSMYASLGERVTITCKASQDINSYLSWFQQKPGKSPKTLIYRANRLVDGVPSRFSGSGSGQDYSLTISSLEYEDMGIYYCLQYDEFPYTFGGGTKLEIKGLAVSTISSFFPPGYQIYIWAPLAGTCGVLLLSLVITLYCKRGRKKLLYIFKQPFMRPVQTTQEEDGCSCRFPEEEEGGCELRVKFSRSADAPAYQQGQNQLYNELNLGRREEYDVLDKRRGRDPEMGGKPRRKNPQEGLYNELQKDKMAEAYSEIGMKGERRRGKGHDGLYQGLSTATKDTYDALHMQALPPR | ≥ 20 |  |  |  |

Second part, led by results:

| degranulation of scCAR-modified T cells (primary screening) [%] | degranulation of scCAR-modified T cells (secondary screening) [%] | production of IFNγ by scCAR-modified T cells [pg/mL] | Binder | cytotoxic activity of scCAR-modified T cells, specific lysis of PC-3 cells [%] |
| --- | --- | --- | --- | --- |
| ≥ 20 | ≥ 20 | ≥ 1500 | D10-v5 scCAR (other) QVQLKESGPGLVAPSQTLSITCTVSGFSLTSYGVHWVRQPPGKGLEWLGVIWAGGFTNYNSALKSRLSISKDNSKSQVLLKMTSLQTDDTAMYYCARRGSSYSMDYWGQGTSVTVSSGGGGSGGGGSGGGGSEIVLSQSPAITAASLGQKVTITCSASSNVSYIHWYQQRSGTSPRPWIYEISKLASGVPVRFSGSGSGTSYSLTISSMEAEDAAIYYCQQWNYPLITFGSGTKLEIQEPKSPDKTHTCPPCPAPPVAGPSVFLFPPKPKDTLMIARTPEVTCVVVDVSHEDPEVKFNWYVDGVEVHNAKTKPREEQYNSTYRVVSVLTVLHQDWLNGKEYKCKVSNKALPAPIEKTISKAKGQPREPQVYTLPPSRDELTKNQVSLTCLVKGFYPSDIAVEWESNGQPENNYKTTPPVLDSDGSFFLYSKLTVDKSRWQQGNVFSCSVMHEALHNHYTQKSLSLSPGKIYIWAPLAGTCGVLLLSLVITLYCKRGRKKLLYIFKQPFMRPVQTTQEEDGCSCRFPEEEEGGCELRVKFSRSADAPAYQQGQNQLYNELNLGRREEYDVLDKRRGRDPEMGGKPRRKNPQEGLYNELQKDKMAEAYSEIGMKGERRRGKGHDGLYQGLSTATKDTYDALHMQALPPR | > 20 |
| ≥ 20 | ≥ 20 | ≥ 1500 | H10-v3 scCAR (other) EVKLVESGGGLVKPGGSLKLSCAASGFTFSSYAMSWVRQTPEKRLEWVASISTGASAYFPDSVKGRFTISRDNARNILYLQMSSLRSEDTAMYYCARITTSTWYFDVWGAGTTVTVSSGGGGSGGGGSGGGGSDIKMTQSPSSMYASLGERVTITCKASQDINSYLSWFQQKPGKSPKTLIYRANRLVDGVPSRFSGSGSGQDYSLTISSLEYEDMGIYYCLQYDEFPYTFGGGTKLEIKTTTPAPRPPTPAPTIASQPLSLRPEACRPAAGGAVHTRGLDFACDIYIWAPLAGTCGVLLLSLVITLYCKRGRKKLLYIFKQPFMRPVQTTQEEDGCSCRFPEEEEGGCELRVKFSRSADAPAYQQGQNQLYNELNLGRREEYDVLDKRRGRDPEMGGKPRRKNPQEGLYNELQKDKMAEAYSEIGMKGERRRGKGHDGLYQGLSTATKDTYDALHMQALPPR | > 20 |
| ≥ 20 |  |  | H10-v5 scCAR (other) EVKLVESGGGLVKPGGSLKLSCAASGFTFSSYAMSWVRQTPEKRLEWVASISTGASAYFPDSVKGRFTISRDNARNILYLQMSSLRSEDTAMYYCARITTSTWYFDVWGAGTTVTVSSGGGGSGGGGSGGGGSDIKMTQSPSSMYASLGERVTITCKASQDINSYLSWFQQKPGKSPKTLIYRANRLVDGVPSRFSGSGSGQDYSLTISSLEYEDMGIYYCLQYDEFPYTFGGGTKLEIKEPKSPDKTHTCPPCPAPPVAGPSVFLFPPKPKDTLMIARTPEVTCVVVDVSHEDPEVKFNWYVDGVEVHNAKTKPREEQYNSTYRVVSVLTVLHQDWLNGKEYKCKVSNKALPAPIEKTISKAKGQPREPQVYTLPPSRDELTKNQVSLTCLVKGFYPSDIAVEWESNGQPENNYKTTPPVLDSDGSFFLYSKLTVDKSRWQQGNVFSCSVMHEALHNHYTQKSLSLSPGKIYIWAPLAGTCGVLLLSLVITLYCKRGRKKLLYIFKQPFMRPVQTTQEEDGCSCRFPEEEEGGCELRVKFSRSADAPAYQQGQNQLYNELNLGRREEYDVLDKRRGRDPEMGGKPRRKNPQEGLYNELQKDKMAEAYSEIGMKGERRRGKGHDGLYQGLSTATKDTYDALHMQALPPR |  |
